According to US20180073026, “NOVEL EXPRESSION REGULATING RNA-MOLECULES AND USES THEREOF” (Universität Wien, published 2018):

Molecular target: RNA polymerase (His6 RNAP; holoenzyme) (Escherichia coli, UniProt P0A7Z4;P0A8V2;P0A8T7;P0A800;P00579 …)
Assay: in vitro transcription, reduction of rrnB termination vs Rev #5713, purified RNAP only
Conditions: tags: His6 (Nudler Lab) or holoenzyme from Affymetrix; chain copies: 2,1,1,1,1
Protocol: Transcription reactions were performed in solution. Wild-type E. coli His6 RNAP (Evgeny Nudler Lab) and wild-type E. coli RNAP Holoenzyme (Affymetrix) were used in the assays. […] Then AUC RNA primer (Dharmacon) was added up to 10 μM together with GTP (25 μM) and ATP (25 μM) followed by incubation at 37° C. for 5 minutes. Next, [α-32P]-CTP (800 Ci/mmol, 2 μl, Hartmann Analytic) was added for another 2 min. To minimize RNA degradation 10 U of RNasin® Ribonuclease Inhibitor (Promega) were added to the reaction. For the reactions with Rho and NusG, the purified transcription factors were added in a concentration of up to 0.5 μM to the transcriptional mixtures where indicated, followed by additional incubation at 37° C. for 5 minutes. Chasing reaction was performed with all four NTPs added to a final concentration of 10-50 μM. To prevent re-initiation, rifampicin (Sigma) was added concurrently at this step to a final concentration of 10 μM. At the indicated time points, an aliquot of chase reaction was quenched with 3× Stop Solution, containing 100 mM EDTA, 8M UREA, 0.025% xylenthianol and 0.025% bromophenol blue. The products were separated by 6% denaturing TBE-PAGE (8M urea). […]

Work on GACAACAUGAGAACAGUUCAGCAGCACUA (ssRNA) [RAP #5713] yielded an activity greater than 2 fold.
